Laboratory results taken from patent US20170327597A1.

Target: Z-domain (an engineered analogue of the IgG-binding domain of protein A)
Test: isothermal titration calorimetry, Z-domain injected into IgG

**Q.** Which fold tighter binding than mmIgG2b-F405L does the source give for mmIgG2b-P307T-Q309L-K409R (antibody) here?
**A.** 5 fold
